Source: patent US12551573B2, “Compositions and methods for the targeting of PCSK9” (Scribe Therapeutics Inc., priority 2022, dated 2026)

How the values were obtained:
6.7/6.8 target dsDNA [1] = assay: In vitro cleavage assay of CasX 491 RNPs: cleavage rate (kcleave); type: biochemical; details: CasX RNP, 20-fold excess RNP
Protocol: (§1) Double-stranded DNA (dsDNA) targets were formed by mixing the oligos in a 1:1 ratio in 1× cleavage buffer (20 mM Tris HCl PH 7.5, 150 mM NaCl, 1 mM TCEP, 5% glycerol, 10 mM MgCl2), following by heating to 95° C. for 10 minutes, and then allowing the solution to cool to room temperature. CasX ribonucleoproteins (RNPs) were reconstituted with CasX 491 and the indicated gRNAs at a final concentration of 1 μM with 1.2-fold excess of the indicated gRNA in 1x cleavage buffer. RNPs were allowed to form at 37° C. for 10 minutes.
The effects of various structural and chemical modifications to the gRNA scaffold on the cleavage rate of CasX 491 RNPs were determined. Cleavage reactions were prepared with final RNP concentrations of 200 nM and final target concentrations of 10 nM, and reactions were carried out at 16° C. and initiated by the addition of the labeled target DNA substrate (Table 27). Aliquots of reactions were taken at 0.25, 0.5, 1, 2, 5, and 10 minutes and quenched by adding an equal volume of 95% formamide with 20 mM EDTA. Samples were denatured at 95° C. for 10 minutes and resolved on a 10% urea-PAGE gel. Gels were imaged on a Typhoon™ laser-scanner platform and quantified using ImageQuant™ TL 8.2 image analysis software (Cytiva™). The apparent first-order rate constant of non-target strand cleavage (kcleave−) was determined for each CasX:gRNA combination.

human B2M locus = assay: Editing (indel rate by NGS) at the B2M locus in HepG2 cells treated with LNPs; type: cell-based; details: LNPs with CasX 491 mRNA + gRNA spacer 7.9 (v1), highest dose of 250 ng
Protocol: ˜50,000 HepG2 cells, cultured in DMEM/F-12 media containing 10% FBS and 1% PenStrep, were seeded per well in a 96-well plate. The next day, seeded cells were treated with varying concentrations of LNPs, which were prepared in six 2-fold serial dilutions starting at 250 ng. These LNPs were formulated to encapsulate CasX 491 mRNA and a B2M-targeting gRNA incorporating either scaffold variant 174 or 316 with spacer 7.9 (v1; see Table 26). […] Briefly, for editing assessment, amplicons were amplified from 200 ng of extracted gDNA with primers targeting the human B2M locus and processed by NGS using similar methods as described in Example 7.

human PCSK9 locus [2] = assay: Secreted PCSK9 levels in HepG2 cells transfected with CasX 491 mRNA and gRNA; type: cell-based; details: CasX 491 mRNA + v1 gRNAs, spacers 6.7 and 6.8, 28 hours
Protocol: (§2) Editing at the PCSK9 locus and consequential effects on secreted PCSK9 levels were assessed for conditions using CasX 491 mRNA co-delivered with a PCSK9-targeting gRNA with scaffold variant 174 compared to conditions where a PCSK9-targeting gRNA with scaffold variant 316 was used. 100 ng of in vitro transcribed mRNA coding for CasX 491 with a P2A and mScarlet fluorescent protein was transfected into HepG2 cells with version 1 (v1) of gRNAs 174-6.7, 174-6.8, 316-6.7, and 316-6.8 (see Table 26) using Lipofectamine™. After a media change, the following were harvested at 28 hours post-transfection: 1) transfected cells were harvested for editing assessment at the PCSK9 locus by NGS (next generation sequencing); and 2) media supernatant was harvested to measure secreted PCSK9 protein levels by ELISA. For editing analysis by NGS, amplicons were amplified from 200 ng of extracted gDNA with a set of primers targeting the PCSK9 locus and processed by NGS (described below). Secreted PCSK9 levels in the media supernatant were also analyzed using a fluorescence resonance energy transfer-based immunoassay from CISBio following the manufacturer's instructions. […]
(§3) V1 through v6 variants of chemically-modified PCSK9-targeting gRNAs (Table 26) were assessed for their effects on editing potency and consequential effects on secreted PCSK9 levels in vitro. […]

B2M locus = assay: B2M knockout (HLA flow cytometry) in HEK293 cells transduced with AAV; type: cell-based, human; details: spacer 7.37, MOI 1E4, 3E3, 1E3 vg/cell, 5 days
6.7/6.8 target dsDNA [3] = assay: In vitro cleavage assay of CasX 491 RNPs: competent (active) fraction; type: biochemical; details: spacer 6.7 or 6.8, v1; equimolar RNP and DNA target
Protocol: as §1
To determine the competent fraction formed by each gRNA, cleavage reactions were prepared with final RNP concentrations of 100 nM and final target concentrations of 100 nM. Reactions were carried out at 37° C. and initiated by the addition of the labeled target substrate (Table 27). Aliquots were taken at 0.5, 1, 2, 5, 10, and 30 minutes and quenched by adding an equal volume of 95% formamide with 25 mM EDTA. Samples were denatured by heating at 95° C. for 10 minutes and resolved on a 10% urea-PAGE gel. Gels were imaged and quantified as above. […] The plateau of each fit was determined and reported as the active fraction for each RNP in Table 30.

human PCSK9 locus [4] = assay: Editing (indel rate by NGS) at the PCSK9 locus in HepG2 cells transfected with CasX 491 mRNA and gRNA; type: cell-based; details: CasX 491 mRNA + v1 gRNAs, spacers 6.7 and 6.8, 28 hours
Protocol: as §2, §3

B1: scaffold 316: chimeric gRNA scaffold, SEQ ID NO: 1746 (nucleic acid)
guide: ACUGGCGCUUCUAUCUGAUUACUCUGAGCGCCAUCACCAGCGACUAUGUCGUAGUGGGUAAAGCUCCCUCUUCGGAGGGAGCAUCAGAG
modifications: listed as RNA, chemistry not fully specified
cleavage rate vs scaffold 174 (6.7/6.8 target dsDNA [1]; spacer 6.7, v1): marginally faster cleavage
cleavage rate vs scaffold 174 (6.7/6.8 target dsDNA [1]; spacer 6.8, v1): nearly twice as quickly
editing level at the B2M locus vs scaffold 174 (human B2M locus): nearly two-fold higher
reduction of PCSK9 secretion vs scaffold 174 (human PCSK9 locus [2]): more effective reduction of PCSK9 secretion
editing at the B2M locus vs scaffold 235 (B2M locus): appeared to improve editing at the B2M locus
active fraction of CasX RNPs, higher than scaffold 174 (6.7/6.8 target dsDNA [3]): 25-30%
increase in editing rate at the PCSK9 locus over scaffold 174 (human PCSK9 locus [4]): ~10 percentage point
